In the supplement of paper PMC10567573:

B1: SLC2A12 (parent)
chain: TRIMIGLTLVFFVQITGQPNILFY

Variants of: B1
Assay: protein stability index of a GFP-peptide fusion (GPS, HEK-293T) (PSI 1-6); higher = more stable
Settings: c terminus: a fixed tail appended
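Note: lentivirally expressed fusions sorted by FACS into six bins by GFP to DsRed ratio, PSI derived from sequencing read proportions per bin multiplied by bin number.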

Variant	protein stability index
TRIMIGLTLVFFVQIWGQPNILFY [T16W]	2.42
TRIMIGLTLVFFVQILGQPNILFY [T16L]	1.04
TRIMIGLTLVFFVQIHGQPNILFY [T16H]	3.42
TRIMIGLTLVFFVQIQGQPNILFY [T16Q]	3.11
TRIMIGLTLVFFVQIYGQPNILFY [T16Y]	3.48
TRIMIGLTLVFFVQITGQPNILFF [Y24F]	5.58
TRIMIGLTLVFFVQITGQPNILFI [Y24I]	3.33
TRIMIGLTLVFFVQITGQPNILFN [Y24N]	2.88
TRIMIGLTLVFFVQITGQPNILFP [Y24P]	3.53
TRIMIGLTLVFFVQITGQPNILFT [Y24T]	3.56
TRIMIGLTLVFFVQITGQPNILFS [Y24S]	2.89
TRIMIGLTLVFFVQITGQPNILFQ [Y24Q]	2.06
TRIMIGLTLVFFVQITGQPNILFR [Y24R]	3.44
TRIMIGLTLVFFVQITGQPNILFV [Y24V]	4.22
TRIMIGLTLVFFVQITGQPNILFA [Y24A]	3.48
TRIMIGLTLVFFVQITGQPNILFG [Y24G]	2.83
WRIMIGLTLVFFVQITGQPNILFY [T1W]	3.23
KRIMIGLTLVFFVQITGQPNILFY [T1K]	2.57
QRIMIGLTLVFFVQITGQPNILFY [T1Q]	2.42
GRIMIGLTLVFFVQITGQPNILFY [T1G]	3.81
IRIMIGLTLVFFVQITGQPNILFY [T1I]	3.72
MRIMIGLTLVFFVQITGQPNILFY [T1M]	1.44
PRIMIGLTLVFFVQITGQPNILFY [T1P]	2.26
TRIMIGLVLVFFVQITGQPNILFY [T8V]	3.33

Variant	protein stability index
TRIMIGLCLVFFVQITGQPNILFY [T8C]	3.82
TRIMIGLFLVFFVQITGQPNILFY [T8F]	2.26
TRIMIGLNLVFFVQITGQPNILFY [T8N]	3.93
TRIMIGLHLVFFVQITGQPNILFY [T8H]	4.12
TRIMIGLTLVFFVQITGAPNILFY [Q18A]	3.12
TRIMIGLTLVFFVQITGDPNILFY [Q18D]	2.16
TRIMIGLTLVFFVQITGTPNILFY [Q18T]	2.7
TRIMIGLTLVFFVQITGVPNILFY [Q18V]	4.47
TRIMIGLTLVFFVQITGEPNILFY [Q18E]	4.17
TRIMIGLTLVFFVQITGYPNILFY [Q18Y]	3.56
TRIMIGLTLVFFVQITGNPNILFY [Q18N]	2.47
TRIMIGLTLVFFVQITGKPNILFY [Q18K]	3.22
TRIMIGLTLVFFVQITGWPNILFY [Q18W]	3.71
TRIMIGLTLVFFVQITGGPNILFY [Q18G]	3.24
TRIMIGLTLVFFVQITGRPNILFY [Q18R]	3.77
TRIMIGLTLVFFVQITGMPNILFY [Q18M]	3.21
TRIMIGLTLVFKVQITGQPNILFY [F12K]	2.95
TRIMIGLTLVFYVQITGQPNILFY [F12Y]	3.14
TRIMIGLTLVFHVQITGQPNILFY [F12H]	3.17
TRIMIGLTLVFMVQITGQPNILFY [F12M]	2.49
TRIMIGLTLVFLVQITGQPNILFY [F12L]	3.53
TRIMIGLTLVFFVQITGQPTILFY [N20T]	2.22
TRIMIGLTLVFFVQITGQPYILFY [N20Y]	2.54
TRIMIGLTLVFFVQITGQPKILFY [N20K]	4.43

Variant	protein stability index
TRIMIGLTLVFFVQITGQPSILFY [N20S]	2.15
TRIMIGLTLVFFVQITGQPPILFY [N20P]	3.22
TRIMIGLTLVFFVQITGQPGILFY [N20G]	3.69
TRIMIGLTLVFFVQITGQPCILFY [N20C]	3.04
TRIMIGLTLVFFVQITGQPMILFY [N20M]	3.84
TRIMIGLTLVFFVQITGQPIILFY [N20I]	2.48
TRIMIGLTLVFFVQITGQPHILFY [N20H]	3.83
TRIMIGLTLVFFVQITGQPQILFY [N20Q]	2.61
TRIMIGLTLVFFVQITGQPNILKY [F23K]	3.29
TRIMIGLTLVFFVQITGQPNILPY [F23P]	3.99
TRIMIGLTLVFFVQITGQPNILYY [F23Y]	3.75
TRIMIGLTLVFFVQITGQPNILCY [F23C]	2.54
TRIMIGLTLVFFVQITGQPNILEY [F23E]	3.67
TRIMIGLTLVFFVQITGQPNILLY [F23L]	3.52
TRIMIGLTLVFFVQITGQPNILHY [F23H]	2.96
TRIMIGLTLVFFVQITGQPNILAY [F23A]	3.26
TRIMIGLTLVFFVQITGQPNILSY [F23S]	2.97
TRIMIGLTLVFFVRITGQPNILFY [Q14R]	2.38
TRIMIGLTLVFFVNITGQPNILFY [Q14N]	3.37
TRIMIGLTLVFFVYITGQPNILFY [Q14Y]	3.3
TRIMIGLTLVFFVLITGQPNILFY [Q14L]	3.19
TRIMIGLTLVFFVTITGQPNILFY [Q14T]	3.67
TRIMIGLTLVFFVAITGQPNILFY [Q14A]	3.31
TRIGIGLTLVFFVQITGQPNILFY [M4G]	2.99

Variant	protein stability index
TRICIGLTLVFFVQITGQPNILFY [M4C]	4.43
TRIAIGLTLVFFVQITGQPNILFY [M4A]	3.65
TRIDIGLTLVFFVQITGQPNILFY [M4D]	3.33
TRIWIGLTLVFFVQITGQPNILFY [M4W]	3.96
TRIPIGLTLVFFVQITGQPNILFY [M4P]	2.72
TRIVIGLTLVFFVQITGQPNILFY [M4V]	4.05
TRIRIGLTLVFFVQITGQPNILFY [M4R]	3.83
TRIIIGLTLVFFVQITGQPNILFY [M4I]	1.92
TRIFIGLTLVFFVQITGQPNILFY [M4F]	2.29
TRIMIGLTLVQFVQITGQPNILFY [F11Q]	3.49
TRIMIGLTLVDFVQITGQPNILFY [F11D]	2.15
TRIMIGLTLVEFVQITGQPNILFY [F11E]	1.63
TRIMIGLTLVPFVQITGQPNILFY [F11P]	2.09
TRIMIGLTLVKFVQITGQPNILFY [F11K]	2.68
TRIMIGLTLVNFVQITGQPNILFY [F11N]	2
TRIMIGLTLVTFVQITGQPNILFY [F11T]	3.22
TRIMIGLTLVYFVQITGQPNILFY [F11Y]	3.02
TRIMIGLTLVLFVQITGQPNILFY [F11L]	2.5
TRIMIGLTLVFFVQITGQPNIIFY [L22I]	1.48
TRIMIGLTLVFFVQITGQPNIFFY [L22F]	2.79
TRIMIGLTLVFFVQITGQPNIQFY [L22Q]	1.83
TRIMIGLTLVFFVQITTQPNILFY [G17T]	2.58
TRIMIGLTLVFFVQITRQPNILFY [G17R]	3.35
TRIMIGLTLVFFVQITHQPNILFY [G17H]	2.87

Variant	protein stability index
TRIMIGLTLVFFVQITKQPNILFY [G17K]	2.58
TRIMIGLTLVFFVQITAQPNILFY [G17A]	2.96
TRIMIGLTLVFFVQITYQPNILFY [G17Y]	3.48
TRIMIGLTLVFFVQITWQPNILFY [G17W]	2.11
TRIMIGLTLVFFVQITQQPNILFY [G17Q]	2.8
TRIMIGLTLVFFVQITPQPNILFY [G17P]	3.68
TRIMIGLTFVFFVQITGQPNILFY [L9F]	5.04
TRIMIGLTQVFFVQITGQPNILFY [L9Q]	1.7
TRIMIGLTDVFFVQITGQPNILFY [L9D]	3.04
TRIMIGLTMVFFVQITGQPNILFY [L9M]	2.58
TRIMIGLTGVFFVQITGQPNILFY [L9G]	2.8
TRIMIGLTLVFFVQITGQPNPLFY [I21P]	3.17
TRIMIGLTLVFFVQITGQPNVLFY [I21V]	2.5
TRIMIGLTLVFFVQITGQPNALFY [I21A]	2.81
TRIMIGLTLVFFVQITGQPNWLFY [I21W]	3.64
TRIMIGLTLVFFVQITGQPNNLFY [I21N]	2.52
TRIMIGLTLVFFVQITGQPNSLFY [I21S]	4.17
TRIMIGLTLVFFVQITGQPNFLFY [I21F]	3.31
TRIMIGLTLVFFVQITGQPNDLFY [I21D]	3.69
TRIMIGLTLVFFVQITGQPNGLFY [I21G]	4.22
TRIMIGLTLVFFVQITGQPNRLFY [I21R]	2.73
TRIMIGLTLVFFVQITGQPNYLFY [I21Y]	2.98
TRIMIGLTLVFFVQITGQPNMLFY [I21M]	1.89
TRIMIGLTLVFFVQITGQPNLLFY [I21L]	2.73

Variant	protein stability index
TRIMKGLTLVFFVQITGQPNILFY [I5K]	3.18
TRIMLGLTLVFFVQITGQPNILFY [I5L]	3.43
TRIMMGLTLVFFVQITGQPNILFY [I5M]	1.77
TRIMTGLTLVFFVQITGQPNILFY [I5T]	2.83
TRIMDGLTLVFFVQITGQPNILFY [I5D]	3.91
TRIMFGLTLVFFVQITGQPNILFY [I5F]	3.16
TRIMHGLTLVFFVQITGQPNILFY [I5H]	3.25
TRIMQGLTLVFFVQITGQPNILFY [I5Q]	3.43
TRIMGGLTLVFFVQITGQPNILFY [I5G]	3.23
TRIMEGLTLVFFVQITGQPNILFY [I5E]	3.74
TRIMRGLTLVFFVQITGQPNILFY [I5R]	2.21
THIMIGLTLVFFVQITGQPNILFY [R2H]	2.17
TLIMIGLTLVFFVQITGQPNILFY [R2L]	2.57
TCIMIGLTLVFFVQITGQPNILFY [R2C]	1.74
TTIMIGLTLVFFVQITGQPNILFY [R2T]	2.27
TYIMIGLTLVFFVQITGQPNILFY [R2Y]	2.27
TWIMIGLTLVFFVQITGQPNILFY [R2W]	3.62
TNIMIGLTLVFFVQITGQPNILFY [R2N]	3.48
TRIMIGETLVFFVQITGQPNILFY [L7E]	2.62
TRIMIGNTLVFFVQITGQPNILFY [L7N]	2.78
TRIMIGCTLVFFVQITGQPNILFY [L7C]	2.22
TRIMIGVTLVFFVQITGQPNILFY [L7V]	2.5
TRIMIGRTLVFFVQITGQPNILFY [L7R]	2.42
TRIMIGDTLVFFVQITGQPNILFY [L7D]	2.9

Variant	protein stability index
TRIMIGSTLVFFVQITGQPNILFY [L7S]	3.54
TRIMIGLTLVFFRQITGQPNILFY [V13R]	2.87
TRIMIGLTLVFFMQITGQPNILFY [V13M]	3.17
TRIMIGLTLVFFLQITGQPNILFY [V13L]	2.69
TRIMIGLTLVFFGQITGQPNILFY [V13G]	3.16
TRIMIGLTLVFFIQITGQPNILFY [V13I]	3.48
TRIMIGLTLVFFTQITGQPNILFY [V13T]	3.18
TRIMITLTLVFFVQITGQPNILFY [G6T]	3.1
TRIMIMLTLVFFVQITGQPNILFY [G6M]	2.46
TRIMIQLTLVFFVQITGQPNILFY [G6Q]	2.82
TRIMIALTLVFFVQITGQPNILFY [G6A]	1.78
TRIMIILTLVFFVQITGQPNILFY [G6I]	1.06
TRIMIYLTLVFFVQITGQPNILFY [G6Y]	2.48
TRIMIRLTLVFFVQITGQPNILFY [G6R]	2.75
TRIMIHLTLVFFVQITGQPNILFY [G6H]	2.34
TRIMIFLTLVFFVQITGQPNILFY [G6F]	4.16
TRIMIKLTLVFFVQITGQPNILFY [G6K]	2.19
TRIMIGLTLRFFVQITGQPNILFY [V10R]	2.5
TRIMIGLTLAFFVQITGQPNILFY [V10A]	3.99
TRIMIGLTLPFFVQITGQPNILFY [V10P]	2.51
TRIMIGLTLEFFVQITGQPNILFY [V10E]	3.41
TRIMIGLTLLFFVQITGQPNILFY [V10L]	2.4
TRIMIGLTLMFFVQITGQPNILFY [V10M]	3.53
TRIMIGLTLFFFVQITGQPNILFY [V10F]	3.06

Variant	protein stability index
TRIMIGLTLKFFVQITGQPNILFY [V10K]	3.44
TRIMIGLTLDFFVQITGQPNILFY [V10D]	1.78
TRIMIGLTLCFFVQITGQPNILFY [V10C]	2.69
TRMMIGLTLVFFVQITGQPNILFY [I3M]	3.1
TRNMIGLTLVFFVQITGQPNILFY [I3N]	2.12
TRYMIGLTLVFFVQITGQPNILFY [I3Y]	3.58
TRPMIGLTLVFFVQITGQPNILFY [I3P]	2.49
TRSMIGLTLVFFVQITGQPNILFY [I3S]	3.14
TRIMIGLTLVFFVQITGQINILFY [P19I]	3.15
TRIMIGLTLVFFVQITGQQNILFY [P19Q]	2.6
TRIMIGLTLVFFVQITGQMNILFY [P19M]	2.83
TRIMIGLTLVFFVQITGQTNILFY [P19T]	3.21
TRIMIGLTLVFFVQITGQVNILFY [P19V]	3.9
TRIMIGLTLVFFVQTTGQPNILFY [I15T]	3.01
TRIMIGLTLVFFVQMTGQPNILFY [I15M]	2.5
TRIMIGLTLVFFVQCTGQPNILFY [I15C]	3.47
TRIMIGLTLVFFVQFTGQPNILFY [I15F]	3.46
TRIMIGLTLVFFVQATGQPNILFY [I15A]	1.54
TRIMIGLTLVFFVQHTGQPNILFY [I15H]	2
TRIMIGLTLVFFVQGTGQPNILFY [I15G]	1.73
